A short description of series [1]: folding stability dG unfold from trypsin proteolysis; higher = more stable. Summed up:
(§1)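 Bayesian fitting of sequencing counts gave K50 for each design. Unfolding free energy followed by setting this against a sequence-predicted unfolded-state K50 and a shared folded-state K50, either per protease or with trypsin and chymotrypsin combined. The designs, under 80 residues and lacking cysteine, were digested in a PA-tagged cDNA display format at 11 threefold-diluted protease concentrations and without protease, and only those with AlphaFold2 dimer inter-PAE above 15 were kept.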

A short description of series [2]: folding stability dG unfold from chymotrypsin proteolysis; higher = more stable. Summed up:
as §1

Series [3] in a line: folding stability dG unfold (combined trypsin and chymotrypsin); higher = more stable. Summed up:
as §1

± gives the half width of the 95% confidence interval.

In the case of “SAMPLLVKVTFYPKDPVTGIPSEEIEEKEVPDIEEAIKEVKKKLPKDNSAKIEVLDENGKLLKTIDLNLSAG [r14_234_JUSTAS]”, the entries for the “folding stability dG unfold” value in series [1], in series [2] and in series [3] were 0.721 ± 0.029 kcal/mol, 0.885 ± 0.11 kcal/mol and 0.845 ± 0.12 kcal/mol, respectively.
The corresponding values for “SAMPVLVVIKRTVVLPRPGEELAKYEDPDGKVRRRVVVETLVVEVNPEDLPELVEFFKSLGIDEISVFGSAG [r14_509_TrMRF]” are 2.18 ± 0.039 kcal/mol, 2.22 ± 0.031 kcal/mol and 2.13 ± 0.11 kcal/mol.
Consider “SAMRFVVRVEGDLEEVERALREEFDFEMEAEREEDGRLVVVVEAEPEELERLVEALERLPDFPVEIEPESAG [r14_521_TrMRF]”, for which the “folding stability dG unfold” value in series [1] came out at 1.01 ± 0.027 kcal/mol; in series [2], 0.716 ± 0.1 kcal/mol; in series [3] it was 0.93 ± 0.062 kcal/mol.
On the same counts, the results for “SAMRIRIEVETRTGPDGRKYVVVRIRDEKTGEELELVFESREEAEEAAKALAEELKKAGYEIEVEIRPPSAG [r14_263_TrROS_Hall]” are 5.23 ± 0.47 kcal/mol, 5.21 ± 0.2 kcal/mol and 5.21 ± 0.19 kcal/mol.
For the sequence “SAMSAEELAERLRERLKKLAEEEGLEVEITVTVEENEDGSLTVTITVKSEEEAERIKEKLPEGVKVEKKSAG [r14_491_TrROS_Hall]”, the “folding stability dG unfold” value worked out at 1.43 ± 0.054 kcal/mol in series [1], 2.37 ± 0.1 kcal/mol in series [2] and 2.14 ± 0.21 kcal/mol in series [3].
Turning to “SAMTIKIEVINEKGEKIEITIPVKKEDLEKLKEEIEKELKKLAEEKGEKVKVEIVEVDENGYLKIRVYKSAG [r14_622_TrROS_Hall]”, the “folding stability dG unfold” value in series [1] was found to be 2.75 ± 0.2 kcal/mol; in series [2] it was 2.54 ± 0.059 kcal/mol; in series [3], 2.73 ± 0.21 kcal/mol.
The corresponding values for “SAMTITVVADSAEEAERAARELAERLREALRELGIEGAEIEIKVTVLPAPPPERVLVRDPETDEWKEVPSAG [r14_475_TrROS_Hall]” are 0.184 ± 0.14 kcal/mol, 1.18 ± 0.031 kcal/mol and 0.981 ± 0.11 kcal/mol.
Consider “SAMTIVIRLPPPPPPLTAEELAELLGAEVTEIRVERNEDGELVVTITVREDMSEEQRRRLLELLRERAESAG [r14_421_TrROS_Hall]”, for which the “folding stability dG unfold” value in series [1] worked out at 4.32 ± 0.07 kcal/mol; in series [2], 3.83 ± 0.048 kcal/mol; in series [3], 4.02 ± 0.075 kcal/mol.
Turning to “SAMTKLVEFDSEEEYEAAVKAAAAAGESVLARLKDPSGTYTVVEVEVDPETGTVTVKKTEKVPVDGSLGSAG [r14_455_JUSTAS]”, the “folding stability dG unfold” value turned out to be 0.622 ± 0.018 kcal/mol in series [1], 1.37 ± 0.027 kcal/mol in series [2] and 1.14 ± 0.042 kcal/mol in series [3].
The corresponding values for “SAMTLEEAKKKGLVVIRVKIEVTLPNGEKREFERVIVAESLEEALEALREELEREGYKVEIVEIEIEKLSAG [r14_854_TrROS_Hall]” are 2.76 ± 0.16 kcal/mol, 1.51 ± 0.11 kcal/mol and 2.04 ± 0.21 kcal/mol.
The corresponding values for “SAMTLTVRVKATPEQLKEALEEETGAKVTIEEEEDGVLTITVEVSEEEREKLAEALKKLPGLEIEIEEESAG [r14_521_TrROS_Hall]” are 1.94 ± 0.067 kcal/mol, 1.89 ± 0.026 kcal/mol and 1.9 ± 0.091 kcal/mol.
On the same counts, the results for “SAMTPEEIKKKVEELLKELAKELNAEVTSVKVDKETKTITVTVKVKLPNGETKTLTLKFTIDKDGKITFSAG [r14_183_TrROS_Hall]” are 3.67 ± 0.12 kcal/mol, 4.5 ± 0.079 kcal/mol and 4.32 ± 0.14 kcal/mol.
As to “SAMTPEELAARLAEALRREAEEAGLEIVDVRVEYDEETDTVTVEVVVRNKETGELVTRRVEIRSLEELLSAG [r14_409_TrROS_Hall]”, the “folding stability dG unfold” value in series [1] is 4.52 ± 0.14 kcal/mol; in series [2] it was 3.23 ± 0.059 kcal/mol; in series [3], 3.98 ± 0.1 kcal/mol.
As for “SAMTVTITLPPSISPEEAKAALEAAFPGEDIQVTTTTDPNAGTLTVTVTFSSPEDAARAAALLAEVRAASAG [r14_443_JUSTAS]”, the “folding stability dG unfold” value is 2.86 ± 0.046 kcal/mol in series [1], 4.68 ± 0.067 kcal/mol in series [2] and 4.33 ± 0.077 kcal/mol in series [3].
Turning to “SAMVIEIEIPSEELLKKLEELLPPGARIKKVEIVKENGKVKIIVELEPGMSEEEKERIKKKIEELLKEESAG [r14_306_TrROS_Hall]”, the entries for the “folding stability dG unfold” value in series [1], in series [2] and in series [3] were 4.92 ± 0.46 kcal/mol, 3.59 ± 0.4 kcal/mol and above 6 kcal/mol, respectively.
On the same counts, the results for “SAMVLDVSELTKKAIEELKKKNPKPLSPEEIVELGKKVAAEVAEKLGIPLKEIKVEPTGKHPKAVAELPSAG [r14_147_TrMRF]” are 0.527 ± 0.096 kcal/mol, 0.839 ± 0.059 kcal/mol and 0.391 ± 0.52 kcal/mol.
For “SAMVTIDYETLKELYEAGDPAKVEEILKKAYEEDPNKTITVIVPEDEKYKNLVLEAAKKMGLPITITGPSAG [r14_236_JUSTAS]”, the “folding stability dG unfold” value in series [1] worked out at 2.46 ± 0.068 kcal/mol; in series [2], 3 ± 0.051 kcal/mol; in series [3] it was 2.83 ± 0.073 kcal/mol.
In the case of “SAMYLIKITIYNEETGEKIAELTLEVEEEDLEELLEEIRKKLNLPPGAKIKVEIVPLEPVVLPDGKLLKSAG [r14_297_TrROS_Hall]”, the “folding stability dG unfold” value in series [1] came out at 0.724 ± 0.12 kcal/mol; in series [2], 2.54 ± 0.2 kcal/mol; in series [3], 1.7 ± 0.27 kcal/mol.
The corresponding values for “SAMYTLRTISYDPNTGVRKLELTVDPAHPDRPVPEAVTQAVADAYAAQGWSVTVTRHPDGSVVIDVPVPSAG [r14_865_JUSTAS]” are 1.84 ± 0.031 kcal/mol, 1.86 ± 0.027 kcal/mol and 1.88 ± 0.022 kcal/mol.
On the same counts, the results for “SAMYVYRARVEVRGPDGELLAEEEIVAESPEELKVAVLERFGLKESEIVRLEVEPVIPLEEFLELLEKGSAG [r14_852_TrMRF]” are 2.05 ± 0.042 kcal/mol, 2.48 ± 0.068 kcal/mol and 2.39 ± 0.11 kcal/mol.
The corresponding values for “SAPDAKVEFNPKLVRKGDELLLLVEVKLSPDVDEVVVEIEVTGPDGSPFKVEAVQFPETGTVLVKAVLPASA [r9_159_TrMRF]” are 1.33 ± 0.078 kcal/mol, 2.04 ± 0.061 kcal/mol and 1.75 ± 0.094 kcal/mol.
In the case of “SAPDVVVVPIKIPPGEMSPSDMIEMIEQAFDQFNWPITPDRIEKLVDKAMKNGDSIWAVIRYLREEGWLSAG [r14_364_TrROS]”, the “folding stability dG unfold” value in series [1] was determined as 2.63 ± 0.049 kcal/mol; in series [2], 3.022 ± 0.021 kcal/mol; in series [3], 2.86 ± 0.076 kcal/mol.
With “SAPFQIKEITVNPKDGEAEINFPLENLPPPWMIHIFDKDKGKTQWIPPGGEIEIRAPEGPVKIMIFWRDSAG [r14_134_TrROS]”, the “folding stability dG unfold” value was found to be 1.27 ± 0.12 kcal/mol in series [1], 0.981 ± 0.45 kcal/mol in series [2] and 1.16 ± 0.25 kcal/mol in series [3].
For “SAPKIKEIKEFDPETKKILIKVETPEGEKEIPIPAGGNMTVEEAIEKVKEFLEKELPEGVELEVEEITISAG [r14_422_TrMRF]”, the results for the “folding stability dG unfold” value in series [1], in series [2] and in series [3] were 0.494 ± 0.12 kcal/mol, 1.35 ± 0.1 kcal/mol and 1 ± 0.17 kcal/mol, respectively.
On the same counts, the results for “SAPKVISATVTYNPATGKVTVTVTLEDADGPVTVTYTFDGDGNVPVTVYDTRTTKPLGTITVPADQLNLSAG [r14_608_TrMRF]” are 1.06 ± 0.08 kcal/mol, 1.21 ± 0.23 kcal/mol and 1.14 ± 0.18 kcal/mol.
As to “SAPNYPFFVRIKLPGNGQEVEFPIESPEEADEMLDNFANHPHIKDIDIYRPDGEEVEIEIKIPPEALKQSAG [r14_747_TrROS]”, the “folding stability dG unfold” value is -0.622 ± 0.3 kcal/mol in series [1], 0.119 ± 0.16 kcal/mol in series [2] and 0.0333 ± 0.26 kcal/mol in series [3].
The corresponding values for “SAPPDFKIKDVKVRRHPHKQEDGGKEKEFPMYHVNVRIEDPNGNKIPINFMMDDPEEMLRFARKLLKKLSAG [r14_36_TrROS]” are 2.2 ± 0.14 kcal/mol, 2.17 ± 0.2 kcal/mol and 2.14 ± 0.25 kcal/mol.
The corresponding values for “SAPPIEELSEEEIKKLVEEELKKKGISPENVKIEITIEKPPGPEYRVKVKVTYKKNKNYLEFEFEFELPSAG [r14_703_JUSTAS]” are 2.34 ± 0.2 kcal/mol, 4.23 ± 0.17 kcal/mol and 3.96 ± 0.33 kcal/mol.
The corresponding values for “SAPPNVWVSRTDPATGAVHAEDIPFPDGATAETVPDPATGTVAQSSDGPPAVLEEVRAALPPDASIEPASAG [r14_252_JUSTAS]” are -0.555 ± 0.15 kcal/mol, -0.245 ± 0.42 kcal/mol and -0.175 ± 0.2 kcal/mol.
In the case of “SAPPRISIPWDPESGNWRVKVYNPKDPGKKREIDIPMKELQAKHGKPMSPNEIAQWLVKKGIDYVEIYPSAG [r14_809_TrROS]”, the “folding stability dG unfold” value worked out at 0.183 ± 0.19 kcal/mol in series [1], 0.559 ± 0.21 kcal/mol in series [2] and 0.409 ± 0.2 kcal/mol in series [3].
On the same counts, the results for “SAPVRGPDGSVFEVDDITFDPDTRTVTVTTPEGTYTFPVPPGWVVEFDPVTKEITVRPLPDLSPENNPFPSA [r9_551_TrMRF]” are 2.54 ± 0.15 kcal/mol, 2.84 ± 0.06 kcal/mol and 2.79 ± 0.097 kcal/mol.
In the case of “SARIAEILRELGMEVSVENHPDGMNEITFKFPNGYKIQVHMSPNGIDVQIQPPEGERRTFSIDEIKDLLSAG [r14_578_TrROS]”, the results for the “folding stability dG unfold” value in series [1], in series [2] and in series [3] were 2.23 ± 0.071 kcal/mol, 3.14 ± 0.046 kcal/mol and 2.77 ± 0.081 kcal/mol, respectively.
Consider “SARPLVVTNPKGSTVRLDPSTGTAEFRNLVTGETVTAKVKPVPNGVLVEVEEGGVKKTFVVPEDGKIVLGSA [r9_239_TrMRF]”, for which the “folding stability dG unfold” value in series [1] was 0.172 ± 0.052 kcal/mol; in series [2], -0.372 ± 0.087 kcal/mol; in series [3], -0.0287 ± 0.066 kcal/mol.
The corresponding values for “SARRDGSKVFLELERVVPLDVPLETVLEEVRRLFPEDAEIRLEAVPRRDLLDGVPREYRVVRVIVVRDDSAG [r14_633_TrMRF]” are 1.06 ± 0.058 kcal/mol, 2.16 ± 0.039 kcal/mol and 1.79 ± 0.15 kcal/mol.
On the same counts, the results for “SARTLTITVPPGYRARVVVTLENGEPLELEVPPSESVTLTIPPGVPALVRVEVFYPDGSVGEFEVEVDDSAG [r14_568_TrMRF]” are 4.65 ± 0.25 kcal/mol, 4.76 ± 0.14 kcal/mol and 4.79 ± 0.2 kcal/mol.
